The record followed here is patent publication US20210244806A1, “Recombinant Protease Inhibitor-Containing Compositions, Methods for Producing Same and Uses Thereof” (ORAMED LTD., priority 2018, published 2021).

For one assay, the target named is T1, trypsin (Bos taurus, UniProt P00760).
T1 sequence (P00760 24-246): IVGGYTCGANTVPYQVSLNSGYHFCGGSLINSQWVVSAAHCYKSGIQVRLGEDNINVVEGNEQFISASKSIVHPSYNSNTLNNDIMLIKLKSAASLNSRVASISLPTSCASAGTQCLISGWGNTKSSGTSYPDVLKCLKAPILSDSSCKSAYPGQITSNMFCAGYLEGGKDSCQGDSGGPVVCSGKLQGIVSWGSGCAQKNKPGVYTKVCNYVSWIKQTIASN
In words: Trypsin Inhibition Assay. Type of assay: biochemical. The protocol:
FIG. 5. Trypsin Inhibition Assay.
Unless indicated otherwise, anti-trypsin activity referred to herein is measured using trypsin having an activity of 10,000 BAEE units per mg. of trypsin, and is expressed in mg. of trypsin inhibited per mg. of protein being tested. BAEE refers to Na-Benzoyl-L-Arginine Ethyl Ester Solution (see the directions for Sigma-Aldrich Product No. B4500). For example, in a typical assay, one unit corresponds to the amount of inhibitor that reduces the trypsin activity by one benzoyl-L-arginine ethyl ester unit (BAEE-U). One BAEE-U is the amount of enzyme that increases the absorbance at 253 nm by 0.001 per minute at pH 7.6 and 25° C. See, for example, K. Ozawa, M. Laskowski, 1966, J. Biol. Chem. 241:3955; and Y. Birk, 1976, Meth. Enzymol. 45:700.
(§1) Protease inhibitor enzymatic activity was verified for the recombinant product, and demonstrable inhibition of chymotrypsin activity was achieved (FIG. 4) as well as inhibition of trypsin activity (FIG. 5).

The target of another assay is chymotrypsin (Bos taurus, UniProt P00766). The assay is described as follows: Chymotrypsin Inhibition Assay. Format: biochemical. The protocol:
FIG. 4. Chymotrypsin Inhibition Assay.
Unless indicated otherwise, anti-chymotrypsin activity referred to herein is measured using chymotrypsin having an activity of 40 BTEE units per mg. of chymotrypsin, and is expressed in mg. of chymotrypsin inhibited per mg. of protein being tested. BTEE refers to N-Benzoyl-L-Tyrosine Ethyl Ester (see the directions for Sigma-Aldrich Product No. B6125).
as §1

B1: rBBI: recombinant Bowman-Birk type proteinase inhibitor, codon-optimized (SEQ ID NO: 1), secreted from Pichia pastoris GS115, clone B17 (protein, listed as Pichia pastoris)
chain: DDESSKPCCDQCACTKSNPPQCRCSDMRLNSCHSACKSCICALSYPAQCFCVDITDFCYEPCKPSEDDKEN
Take B1: in the assay with trypsin (FIG. 5, result in words), the “inhibition of trypsin activity compared to purified SBTI purified from soya” value is on record as “far greater inhibition of enzymatic activity”. For the same molecule, the “trypsin inhibited by 1 mg inhibitor” value with trypsin (FIG. 5, trypsin of 10,000 BAEE units per mg) is listed as 1.7 mg trypsin inhibited by 1 mg inhibitor. In the assay with chymotrypsin (FIG. 4, result in words), the “inhibition of chymotrypsin activity compared to purified SBTI purified from soya” value was “far greater inhibition of enzymatic activity”. The “chymotrypsin inhibited by 1 mg inhibitor” value with chymotrypsin (FIG. 4, chymotrypsin of 40 BTEE units per mg) is reported as 2.3 mg chymotrypsin inhibited by 1 mg inhibitor.
